{"source": "the nanobody polyreactivity screen of Harvey et al. (2022)"}
{"test": "yeast display, Sf9 membrane polyspecificity reagent, FACS + sequencing; frameworks hold sequencing errors", "method_in_brief": "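Using colony PCR, genes from sorted yeast display clones were amplified, then sequenced on MiSeq at 2 × 250 and filtered by CDR length. The clones had been stained with 10% biotinylated, detergent-solubilized Sf9 membrane reagent for 1 hour at 4 °C and sorted by FACS into low and high (top ~1%) gates on anti-HA and streptavidin fluorescence. Polyreactivity labels come from the gate of origin.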"}
{"sequence": "QVHLVESGGGLVQAGGSLRLSCAASGSIFAVYAMGWYRQEPGKERELVAVITRSGGSTYYADSVKGRFTISRDNAKKTVYLQLYSLKPEDTAVYYCAARSSYLLRYDYWGQGTQVTVSS", "polyreactivity (PSR sort gate)": "high polyreactivity"}
{"sequence": "QVHLVESGGGLVQAGGSLRLSCAASGSIFDVNAMGWYRQSPGKERELVASIDNSGTTNYADSVKGRFTISRDNAKNTVYLLMNSLKPEDTAVYYGAAEYESGDYWGQGTQVTVSS", "polyreactivity (PSR sort gate)": "low polyreactivity"}
{"sequence": "QVHLVESGGGLVQAGGSLRLSCAASGSIFDYYDMGWYRQAPGKERELVASITWSGGRTSYADSVKGRFTISRDNAKNTVYLQMNSLKPEDNAVYYCNARGFRGEYDYWVQGTQVTVSS", "polyreactivity (PSR sort gate)": "high polyreactivity"}
{"sequence": "QVHLVESGGGLVQAGGSLRLSCAASGSIFGTYAMGWYRQPPGKESELVAAITSSGGSTYYADSVKGRFTISRDNAKNTVYLQMNSLKPEDTAVYYCAAYLRIRVGVPVRTYYYWGQGTQVTVSS", "polyreactivity (PSR sort gate)": "high polyreactivity"}
{"sequence": "QVHLVESGGGLVQAGGSLRLSCAASGSIFKPYAMGWYRKAPGKERELVAAISGIGGSTYYADSVKGRFTISRDNAKNTVYLQMNSLKPEDTAVYYCAADTFFKIFSEYNYCGQGTQVTVSS", "polyreactivity (PSR sort gate)": "high polyreactivity"}
{"sequence": "QVHLVESGGGLVQAGGSLRLSCAASGSIFRYYAMGCYRQAPGKERELVAGITWSSGSTYYADYVKGRFTISRDKAKNTVYFQMNSLKPEDTAVSYCIADPANPFVTEFEYWGQGNQVTVSS", "polyreactivity (PSR sort gate)": "high polyreactivity"}
{"sequence": "QVHLVESGGGLVQAGGSLRLSCAASGSIFSDYAMGWYRQAPGKERELVAAITWSGGSTYYADSVKGRFTISRDNAKNTVYLQMNSLKPEDTAVYYCAARFGKVRDFRYAYLLEYDYWGQGTQVTVSS", "polyreactivity (PSR sort gate)": "low polyreactivity"}
{"sequence": "QVHLVESGGGLVQAGGSLRLSCAASGSIFSVNDMGWYRQAPGKERELVAAISSGGSTNYADSVKGRFTISRDNAKNTVSLQMNSLKPEDTAVYYCAADFYVVYWGTYSVGYDYWGQGTQVTVSS", "polyreactivity (PSR sort gate)": "low polyreactivity"}
{"sequence": "QVHLVESGGGLVQAGGSLRLSCAASGSIFTRYTMGWYRQAPGKERELVAAITRSGGSTYYADSVKGRFTISRDNAKNTVYLQMNSLKPEDTAVYYCAARVRLATGARDYWGQGTQVTVSS", "polyreactivity (PSR sort gate)": "high polyreactivity"}
{"sequence": "QVHLVESGGGLVQAGGSLRLSCAASGSIFVAYAMGWYRQAPGKERELVAAISSSGGTTYYADSVKGRFTISRDNAMNTVYLQMNSLKPEDTAVYYCAARDYKFYYWGQGSQVTVSS", "polyreactivity (PSR sort gate)": "high polyreactivity"}
{"sequence": "QVHLVESGGGLVQAGGSLRLSCAASGSIFYVYAMGWYRQAPGKERELVAAITSSGTTNYADSVKGRFTISRDNAKNTVYLQMNSLKPEDTAVYYCAADPDSGQVPFDYWGQGTQVTVSS", "polyreactivity (PSR sort gate)": "low polyreactivity"}
{"sequence": "QVHLVESGGGLVQAGGSLRLSCAASGSIFYVYAMVWYRQAPGKERELVAAITWSGGSTYYADSVKGRFTISRDNAKNTVYLQMNSLNPEDTAVYYCAADEGYDYPYYYWGQGTQVSVSS", "polyreactivity (PSR sort gate)": "high polyreactivity"}
{"sequence": "QVHLVESGGGLVQAGGSLRLSCAASGSIFYYYAMGWYRQAPGKEREFVAAINWSGGITYYADSVKGRFTISRDNAKNTVYLQMNSLKPEDTAVFYCAAPVRGYSYGKYDYWGQGTQVTVSS", "polyreactivity (PSR sort gate)": "high polyreactivity"}
{"sequence": "QVHLVESGGGLVQAGGSLRLSCAASGSIIGKYAMGWYRQAPGKERELVADITNSGGSTYYADSVKGRFTISRDNAKNTVYLQMNSLKPEDTAVYYCAADYLYPPYYEFYFWGQGTQVTVSS", "polyreactivity (PSR sort gate)": "low polyreactivity"}
{"sequence": "QVHLVESGGGLVQAGGSLRLSCAASGSILARYAMGWYRQAPRKERELVASITTSGDSTYYADSVKGRFTISRDNAKNTVSLQMNSLIPEDTAVYYCARRRWGWGYQHFPYYYWGQGTQVTVSS", "polyreactivity (PSR sort gate)": "high polyreactivity"}
{"sequence": "QVHLVESGGGLVQAGGSLRLSCAASGSILDEYAMGWYRQPPGKESELVAAISSSGTSTYYADSVKRRFTISRDNAKNTDYLQMNSLKPEDTAVYDCARVKQHRSHRVPGDDYWGQGTQVTVSS", "polyreactivity (PSR sort gate)": "low polyreactivity"}
{"sequence": "QVHLVESGGGLVQAGGSLRLSCAASGSIYHGNAMGWYRQAPGKERELVATISSGGSTYYADSLKVRFTISRDNAKNTVYLQMNSLKPEDTAVYYCAAERFWPYKSYYRGQGTQVTVSS", "polyreactivity (PSR sort gate)": "low polyreactivity"}
{"sequence": "QVHLVESGGGLVQAGGSLRLSCAASGSIYVNTMGWYRPAPGKERELVAGISRSTGRTYYADSVKGRFTISRDNAKNTVYLQMNSLKPEDTAVYYCNTVPWRRWGYDYWGQGTQVTVSS", "polyreactivity (PSR sort gate)": "high polyreactivity"}
{"sequence": "QVHLVESGGGLVQAGGSLRLSCAASGSLFYYNAMGWYRPAPGKERDLVAAINSNGGSTYYADTVKGRFTISRDNAKNTVYLQMNSLKPEDTAVYSSAAKYYFNWHRQGYDYWGQGTQVTVSS", "polyreactivity (PSR sort gate)": "high polyreactivity"}
{"sequence": "QVHLVESGGGLVQAGGSLRLSCAASGSTCYWYTMGWYRKAPGKERELVARISSSGSTNYADSVKGRFTISRDNEKNTVYLLMNILKAEDTAVYYCNIDWFYRGYDYWGQGTQVTVSS", "polyreactivity (PSR sort gate)": "high polyreactivity"}
{"sequence": "QVHLVESGGGLVQAGGSLRLSCAASGSTFDVYAMGWYRQAPRKERELVAVINTSGTRTYYADSVKGRFTISRDNAKNSVYLLMNSLKPEDTAVSYCNAGGNLEMIYWGQGTQVTVSS", "polyreactivity (PSR sort gate)": "low polyreactivity"}
{"sequence": "QVHLVESGGGLVQAGGSLRLSCAASGSTFETNAMGWYRQSPGKERELVAAIRWSTGNTYYADSVKGRFTISRDNAKNTVYLQMNSLKPEDTAVYYCAAYKGKHYKEGYWGQGTQVTVSS", "polyreactivity (PSR sort gate)": "low polyreactivity"}
{"sequence": "QVHLVESGGGLVQAGGSLRLSCAASGSTFFQYAMGWYRQAPGKERELVAAISSRGGRTYYADSVKGRFTISRDNAKNTVYLQMNRLKPEDTAVYYCATNRSVSYPYDGYYYWGQGTQVTVSS", "polyreactivity (PSR sort gate)": "high polyreactivity"}
{"sequence": "QVHLVESGGGLVQAGGSLRLSCAASGSTFKRNAMGWYRQAPGKERELVAAITQRGGRTYYADSVKGRFTISRDNAKNTVYLQMNSLKPEDTAVYYCAVDSQTANDYDYWGQGTEVTVSS", "polyreactivity (PSR sort gate)": "low polyreactivity"}
{"sequence": "QVHLVESGGGLVQAGGSLRLSCAASGSTFLYYAMGWYRQAPGKERELVAAISSSGGRTYYADSVKGRFTISRDNAKNTVYLQMNSLKPEDTAVYYCAADGRRTSKAGYYYWGQGTQVTVSS", "polyreactivity (PSR sort gate)": "high polyreactivity"}
{"sequence": "QVHLVESGGGLVQAGGSLRLSCAASGSTFQWYAMGWYIQAPGKERELVATISYTGGSRTYYADSVKGRFTNSRDNAKNTVYLQMNSLKPEDTAVYDCAAESNQLFYFRRFDFWGQGTQVTVSS", "polyreactivity (PSR sort gate)": "low polyreactivity"}
{"sequence": "QVHLVESGGGLVQAGGSLRLSCAASGSTFRHYAMGWYRQAPGKERELVAAISSRGGRTYYADSVKGRFTISRDNAKNTGYLQMNSQKPEDTAVYYCAADRFRLYVGGWWYDYWRQGTQVTVSS", "polyreactivity (PSR sort gate)": "high polyreactivity"}
{"sequence": "QVHLVESGGGLVQAGGSLRLSCAASGSTFSIYTMGWYRQAPGKERELVAVITKSGGSTYYADSLKGRFTISRDNAKNTVYLQMISLKPEDIAVYYCAARRRGARHDYWGQGTQVTVSS", "polyreactivity (PSR sort gate)": "high polyreactivity"}
{"sequence": "QVHLVESGGGLVQAGGSLRLSCAASGSTFSSYAMGWYRQAPGKERELVAAINWSGTRTYYADSVKGRFTISRDNAKNTVYLQMNSLKPEDTAVYYCAAPGDGETADYDYWGQGTQVTVSS", "polyreactivity (PSR sort gate)": "low polyreactivity"}
{"sequence": "QVHLVESGGGLVQAGGSLRLSCAASGSTFTYYAMGWYRQAPGKERELVAAITSGGSTNYADSVKGRFTISRDNAKNTVYLQMNSLKPEDTAVYYCAGDGQNFQFYVVSEEYDYWGQGTQVTVSS", "polyreactivity (PSR sort gate)": "low polyreactivity"}
{"sequence": "QVHLVESGGGLVQAGGSLRLSCAASGSTFYRYAMGWYRQAPGKERELVAAITTSGDSTYYADSVKGRFTISRDNAKNTVYLQMNSLKPEDTAIYDCNKVGRYSSYYWGQGSQVTVSS", "polyreactivity (PSR sort gate)": "high polyreactivity"}
{"sequence": "QVHLVESGGGLVQAGGSLRLSCAASGSTFYVNAMGWDRQAPGKERELVAAIRSSGRTNYADSVKGRFTISRDNAKNTVYLQMNSLKPEDTAVYYCAAEVPHWPYYGRLHDRDYWGQGTQVTVSS", "polyreactivity (PSR sort gate)": "low polyreactivity"}
{"sequence": "QVHLVESGGGLVQAGGSLRLSCAASGSTFYYAMGLYRKAPGKERELVASITFSTGSTYYADSVKGRFTISRDNAKNTVLLQMNSLKPEDTAVYYCATGVDTFSLSVEHDSWGQGTQVTVSS", "polyreactivity (PSR sort gate)": "low polyreactivity"}
{"sequence": "QVHLVESGGGLVQAGGSLRLSCAASGSTIDYKAMGWYRQAPGKERELVAAITTIGGSTYYADSVKGRFTISRDNAKNTVYLQMNSLKPEDTAVYYCAADLRVWGRSGYDYWGQGTQVTVSS", "polyreactivity (PSR sort gate)": "low polyreactivity"}
{"sequence": "QVHLVESGGGLVQAGGSLRLSCAASGSTSYVYAMGWYRKAPGKERELVAAISGSGGRTYYADSVKGRFTISRDNAKNTVYLQMNSLKPEDTAVYYCNALPRPSYPFDYWGQGTQVTVSS", "polyreactivity (PSR sort gate)": "high polyreactivity"}
{"sequence": "QVHLVESGGGLVQAGGSLRLSCAASGTIFGINAMGWYRQAPGKERELVAGITSGGSTYYADSLKGRFTISRDNAKNTVDLQMNILKPEDTAVYYCAAVANQWYTEREYWGQGTQVTVSS", "polyreactivity (PSR sort gate)": "low polyreactivity"}
{"sequence": "QVHLVESGGGLVQAGGSLRLSCAASGYIFHVYAMGWYRQAPGKERELVAAITSSGGSKYYADSVKGRFTISRDNAKNTVYLQMNCLKPEDTAVYYCAARTRYISGRQTGYDYWGQGTQVTVSS", "polyreactivity (PSR sort gate)": "high polyreactivity"}
{"sequence": "QVHLVESGGGLVQAGGSLRLSCAASGYIFTGYAMGCYRQAPGKERELVATINTDGDSTYYADSVKGRFTISRDNAKNTVYLQMNSLKPEDTAVYYCNKRLTQAYDDQVGYDYWGQGTQVTVSS", "polyreactivity (PSR sort gate)": "low polyreactivity"}
{"sequence": "QVHLVESGGGLVQAGGSLRLSCAASGYRNAMGWYRQAPGKERELVAAISSGGSTYADSVKGRFTISRDNAKNTVYLQMNSLKPEDTAVYYCAAGPVPTYDYGNFDYWGQGTQVTVSS", "polyreactivity (PSR sort gate)": "low polyreactivity"}
{"sequence": "QVHLVESGGGLVQAGGSLRLSCAASGYTFDSYAMGWYRQAPGKERELVAAISSGGRTKYADSVKGRFTISRDNAKNTVYLQMNSLKPEDTAFYYCAARRTFGVGILVGYWGQGTQVTVSS", "polyreactivity (PSR sort gate)": "high polyreactivity"}
{"sequence": "QVHLVESGGGLVQAGGSLRLSCAASGYTFVVYAMGWYIQAPGKERELVAAINKSGGSTYYADSVKGRFTISRDHAKNSVYLQMNSLKAEDTAFYYCAADLLKLRTDYYWGQGTQVTVSS", "polyreactivity (PSR sort gate)": "low polyreactivity"}
